Results reported in patent US20160090427A1 (SAMSUNG ELECTRONICS, published 2016).
Values belong to the binder of their own block, whether it stands above or below them.

Columns and labels:
[1] = molecular target: T1, human c-Met/Fc fusion protein (R&D Systems) (human, UniProt P08581 25-932); assay: SPR (Biacore T100), bispecific captured by human Fab binder on CM5 chip, c-Met-Fc injected
T1 construct: Bought reagent; also called c-Met-Fc (#358-MT/CF, R&D Systems); human c-Met/Fc protein; not shown: Fc part of the bought fusion protein
T1 sequence (P08581 25-932 limits assumed): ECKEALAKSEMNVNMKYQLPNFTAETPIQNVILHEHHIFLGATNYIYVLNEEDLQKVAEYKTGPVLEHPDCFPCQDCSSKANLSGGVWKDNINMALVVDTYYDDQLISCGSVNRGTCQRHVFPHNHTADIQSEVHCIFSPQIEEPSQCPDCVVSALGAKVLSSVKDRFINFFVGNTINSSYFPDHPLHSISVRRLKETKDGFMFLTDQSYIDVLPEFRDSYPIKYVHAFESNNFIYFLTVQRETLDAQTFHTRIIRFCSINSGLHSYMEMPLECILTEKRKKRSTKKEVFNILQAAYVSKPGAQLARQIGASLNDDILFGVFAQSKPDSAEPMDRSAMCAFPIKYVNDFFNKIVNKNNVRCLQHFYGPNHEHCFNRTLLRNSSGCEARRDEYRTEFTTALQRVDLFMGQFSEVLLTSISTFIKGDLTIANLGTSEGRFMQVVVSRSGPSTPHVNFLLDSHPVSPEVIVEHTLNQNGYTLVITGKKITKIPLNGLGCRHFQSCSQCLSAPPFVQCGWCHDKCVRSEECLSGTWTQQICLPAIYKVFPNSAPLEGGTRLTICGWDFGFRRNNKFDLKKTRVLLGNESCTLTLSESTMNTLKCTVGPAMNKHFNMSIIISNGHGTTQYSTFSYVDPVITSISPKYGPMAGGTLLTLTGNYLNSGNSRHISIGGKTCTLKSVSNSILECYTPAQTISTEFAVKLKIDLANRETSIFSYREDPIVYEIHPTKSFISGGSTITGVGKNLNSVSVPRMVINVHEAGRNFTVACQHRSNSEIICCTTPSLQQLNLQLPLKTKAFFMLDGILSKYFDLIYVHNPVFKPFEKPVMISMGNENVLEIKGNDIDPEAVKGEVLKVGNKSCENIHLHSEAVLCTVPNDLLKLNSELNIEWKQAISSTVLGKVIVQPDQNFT
Method: An examination on whether the anti-c-Met/anti-VEGF bispecific antibody maintains binding affinity to c-Met was conducted using Biacore T100(GE). A human Fab binding agent (GE Healthcare) was immobilized onto a CM5 chip (#BR-1005-30, GE) according to the manufacturer's instructions. About 90˜120 RU of the anti-c-Met/anti-VEGF bispecific antibody was captured, and c-Met-Fc (#358-MT/CF, R&D Systems) was injected thereto at various concentrations. Then, 10 mM Glycine-HCl (pH 2.1) solution was injected thereto to regenerate the surface. The obtained data were fitted using BlAevaluation software (GE Healthcare, Biacore T100 evaluation software), to measure the binding affinity to c-Met.

VEGF (R&D systems) = VEGF (R&D systems) (UniProt P15692-4 27-191, limits assumed); assay: SPR (Biacore T100), CM5 chip, VEGF; format unclear in the text
Sequence of VEGF (R&D systems) (P15692 other isoform, or with tags, fused parts or gaps limits assumed): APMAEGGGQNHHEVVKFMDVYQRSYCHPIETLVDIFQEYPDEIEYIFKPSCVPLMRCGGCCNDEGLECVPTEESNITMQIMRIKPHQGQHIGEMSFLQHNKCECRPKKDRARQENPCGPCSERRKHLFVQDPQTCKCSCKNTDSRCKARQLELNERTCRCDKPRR
Method: An examination on whether the 8 anti-c-Met/anti-VEGF bispecific antibodies prepared in Example 2 maintains binding affinity to VEGF was conducted using Biacore T100(GE). VEGF (R&D systems) immobilized on the surface of CM5 chip (#BR-1005-30, GE) by amino coupling according to the manufacturer's instructions. About 90˜120 RU of the anti-c-Met/anti-VEGF bispecific antibody was captured, and […] was injected thereto at various concentrations. Then, a solution containing 1M NaCl and 5 mM NaOH was injected thereto to regenerate the surface. The obtained data were fitted using BlAevaluation software (GE Healthcare, Biacore T100 evaluation software), to measure the binding affinity to VEGF.

B1: MV-15 anti-c-Met/anti-VEGF bispecific antibody (bispecific antibody, human IgG2, kappa)
heavy: EVQLVESGGGLVQPGGSLRLSCAASGFTFTDYYMSWVRQAPGKGLEWLGFIRNKANGYTTEYSASVKGRFTISRDNSKNTLYLQMNSLRAEDTAVYYCARDNWFAYWGQGTLVTVSSASTKGPSVFPLAPCSRSTSESTAALGCLVKDYFPEPVTVSWNSGALTSGVHTFPAVLQSSGLYSLSSVVTVPSSNFGTQTYTCNVDHKPSNTKVDKTVERKCCVECPPCPAPPVAGPSVFLFPPKPKDTLMISRTPEVTCVVVDVSHEDPEVQFNWYVDGVEVHNAKTKPREEQFNSTFRVVSVLTVVHQDWLNGKEYKCKVSNKGLPAPIEKTISKTKGQPREPQVYTLPPSREEMTKNQVSLTCLVKGFYPSDIAVEWESNGQPENNYKTTPPMLDSDGSFFLYSKLTVDKSRWQQGNVFSCSVMHEALHNHYTQKSLSLSPGKGGGGSGGGGSEVQLLESGGGLVQPGGSLRLSCAASGFTFSGYAMSWVRQAPGKGLEWVSSIYSSSGSKYYADSVKGRFTISRDNSKNTLYLQMNSLRAEDTAVYYCARASSTCTRTWCSYDDAMDVWGQGTLVTVSSGGGGSGGGGSGGGGSQSVLTQPPSASGTPGQRVTISCTGSSSNIGNNAVTWYQQLPGTAPKLLIYDDSHRPSGVPDRFSGSKSGTSASLAISGLRSEDEADYYCGTWDYSLSGYVFGGGTKLTVLG
light: DIQMTQSPSSLSASVGDRVTITCKSSQSLLASGNQNNYLAWYQQKPGKAPKMLIIWASTRVSGVPSRFSGSGSGTDFTLTISSLQPEDFATYYCQQSYSRPYTFGQGTKVEIKRTVAAPSVFIFPPSDEQLKSGTASVVCLLNNFYPREAKVQWKVDNALQSGNSQESVTEQDSKDSTYSLSSTLTLSKADYEKHKVYACEVTHQGLSSPVTKSFNRGEC
notes: This is an inference
Kd [1]: 0.1 nM
Kd (VEGF (R&D systems)): 6.83 nM

B2: MV-19 anti-c-Met/anti-VEGF bispecific antibody (bispecific antibody, human IgG2, kappa)
heavy: EVQLVESGGGLVQPGGSLRLSCAASGFTFTDYYMSWVRQAPGKGLEWLGFIRNKANGYTTEYSASVKGRFTISRDNSKNTLYLQMNSLRAEDTAVYYCARDNWFAYWGQGTLVTVSSASTKGPSVFPLAPCSRSTSESTAALGCLVKDYFPEPVTVSWNSGALTSGVHTFPAVLQSSGLYSLSSVVTVPSSNFGTQTYTCNVDHKPSNTKVDKTVERKCCVECPPCPAPPVAGPSVFLFPPKPKDTLMISRTPEVTCVVVDVSHEDPEVQFNWYVDGVEVHNAKTKPREEQFNSTFRVVSVLTVVHQDWLNGKEYKCKVSNKGLPAPIEKTISKTKGQPREPQVYTLPPSREEMTKNQVSLTCLVKGFYPSDIAVEWESNGQPENNYKTTPPMLDSDGSFFLYSKLTVDKSRWQQGNVFSCSVMHEALHNHYTQKSLSLSPGKGGGGSGGGGSEVQLLESGGGLVQPGGSLRLSCAASGFTFSSYSMSWVRQAPGKGLEWVSGISHGGGNKYYADSVKGRFTISRDNSKNTLYLQMNSLRAEDTAVYYCARDLRANNDTGFDYWGQGTLVTVSSGGGGSGGGGSGGGGTQSVLTQPPSSSGTPGQRVTISCTGSSSNIGSNAVTWYQQLPGTAPKLLIYDDNHRPSGVPDRFSGSKSGTSASLAISGLRSEDEADYYCGAWDYSLNAYVFGGGTKLTVLG
light: B1 light
Kd [1]: 0.3 nM
Kd (VEGF (R&D systems)): 1 nM

B5: MV-17 anti-c-Met/anti-VEGF bispecific antibody (bispecific antibody, human IgG2, kappa)
heavy: EVQLVESGGGLVQPGGSLRLSCAASGFTFTDYYMSWVRQAPGKGLEWLGFIRNKANGYTTEYSASVKGRFTISRDNSKNTLYLQMNSLRAEDTAVYYCARDNWFAYWGQGTLVTVSSASTKGPSVFPLAPCSRSTSESTAALGCLVKDYFPEPVTVSWNSGALTSGVHTFPAVLQSSGLYSLSSVVTVPSSNFGTQTYTCNVDHKPSNTKVDKTVERKCCVECPPCPAPPVAGPSVFLFPPKPKDTLMISRTPEVTCVVVDVSHEDPEVQFNWYVDGVEVHNAKTKPREEQFNSTFRVVSVLTVVHQDWLNGKEYKCKVSNKGLPAPIEKTISKTKGQPREPQVYTLPPSREEMTKNQVSLTCLVKGFYPSDIAVEWESNGQPENNYKTTPPMLDSDGSFFLYSKLTVDKSRWQQGNVFSCSVMHEALHNHYTQKSLSLSPGKGGGGSGGGGSEVQLLESGGGLVQPGGSLRLSCAASGFTFSNYDMSWVRQAPGKGLEWVSGIYPNGGSKYYADSVKGRFTISRDNSKNTLYLQMNSLRAEDTAVYYCARALRQCQRYWCSYADGMDVWGQGTLVTVSSGGGGSGGGGSGGGGSQSVLTQPPSASGTPGQRVTISCTGSSSNIGSNYVSWYQQLPGTAPKLLIYADSQRPSGVPDRFSGSKSGTSASLAISGLRSEDEADYYCGTWDYSLSGYVLGGGTKLTVLG
light: B1 light
Kd [1]: 0.09 nM
Kd (VEGF (R&D systems)): 5.76 nM

B7: MV-16 anti-c-Met/anti-VEGF bispecific antibody (bispecific antibody, human IgG2, kappa)
heavy: EVQLVESGGGLVQPGGSLRLSCAASGFTFTDYYMSWVRQAPGKGLEWLGFIRNKANGYTTEYSASVKGRFTISRDNSKNTLYLQMNSLRAEDTAVYYCARDNWFAYWGQGTLVTVSSASTKGPSVFPLAPCSRSTSESTAALGCLVKDYFPEPVTVSWNSGALTSGVHTFPAVLQSSGLYSLSSVVTVPSSNFGTQTYTCNVDHKPSNTKVDKTVERKCCVECPPCPAPPVAGPSVFLFPPKPKDTLMISRTPEVTCVVVDVSHEDPEVQFNWYVDGVEVHNAKTKPREEQFNSTFRVVSVLTVVHQDWLNGKEYKCKVSNKGLPAPIEKTISKTKGQPREPQVYTLPPSREEMTKNQVSLTCLVKGFYPSDIAVEWESNGQPENNYKTTPPMLDSDGSFFLYSKLTVDKSRWQQGNVFSCSVMHEALHNHYTQKSLSLSPGKGGGGSGGGGSEVQLLESGGGLVQTGGSLRLSCAASGFTFSDYAMSWVRQAPGKGLEWVSSIYPGSGSKYYADSVKGRFAISRDNSKNTLYLQMNSLRAEDTAVYYCARDAWFRGHNVFDYWGQGTLVTVSSGGGGSGGGGSGGGGSQSVLTQPPSASGTPGQRVTISCTGSSSNIGSNNVTWYQQLPGTAPKLLIYSDSHRPSGVPDRFSGSKSGTSASLAISGLQSEDEADYYCGSWDYSLSAYVFGGGTKLTVLG
light: B1 light
Kd [1]: 0.21 nM
Kd (VEGF (R&D systems)): 14.8 nM

Stronger by Kd [1], values ahead:

Kd [1]: 0.05 nM
Kd (VEGF (R&D systems)): 4.23 nM
B6: MV-18 anti-c-Met/anti-VEGF bispecific antibody (bispecific antibody, human IgG2, kappa)
heavy: EVQLVESGGGLVQPGGSLRLSCAASGFTFTDYYMSWVRQAPGKGLEWLGFIRNKANGYTTEYSASVKGRFTISRDNSKNTLYLQMNSLRAEDTAVYYCARDNWFAYWGQGTLVTVSSASTKGPSVFPLAPCSRSTSESTAALGCLVKDYFPEPVTVSWNSGALTSGVHTFPAVLQSSGLYSLSSVVTVPSSNFGTQTYTCNVDHKPSNTKVDKTVERKCCVECPPCPAPPVAGPSVFLFPPKPKDTLMISRTPEVTCVVVDVSHEDPEVQFNWYVDGVEVHNAKTKPREEQFNSTFRVVSVLTVVHQDWLNGKEYKCKVSNKGLPAPIEKTISKTKGQPREPQVYTLPPSREEMTKNQVSLTCLVKGFYPSDIAVEWESNGQPENNYKTTPPMLDSDGSFFLYSKLTVDKSRWQQGNVFSCSVMHEALHNHYTQKSLSLSPGKGGGGSGGGGSEVQLLESGGGLVQPGGSLRLSCAASGFTFSDYYMSWVRQAPGKGLEWVSAIYSGGGSIYYADSVKGRFTISRDNSKNTLYLQMNSLRAEDTAVYYCARDVQWNKAPRFDYWGQGTLVTVSSGGGGSGGGGSGGGGSQSVLTQPPSASGAPGQRVTISCSGSSSNIGSNDVSWYQQLPGTAPKLLIYADSNRPSGVPDRFSGSKSGTSASLAISGLRSEDEADYYCGSWDYSLSGYVFGGGTKLTVLG
light: B1 light

Kd [1]: 0.04 nM
Kd (VEGF (R&D systems)): 4.43 nM
B3: MV-20 anti-c-Met/anti-VEGF bispecific antibody (bispecific antibody, human IgG2, kappa)
heavy: EVQLVESGGGLVQPGGSLRLSCAASGFTFTDYYMSWVRQAPGKGLEWLGFIRNKANGYTTEYSASVKGRFTISRDNSKNTLYLQMNSLRAEDTAVYYCARDNWFAYWGQGTLVTVSSASTKGPSVFPLAPCSRSTSESTAALGCLVKDYFPEPVTVSWNSGALTSGVHTFPAVLQSSGLYSLSSVVTVPSSNFGTQTYTCNVDHKPSNTKVDKTVERKCCVECPPCPAPPVAGPSVFLFPPKPKDTLMISRTPEVTCVVVDVSHEDPEVQFNWYVDGVEVHNAKTKPREEQFNSTFRVVSVLTVVHQDWLNGKEYKCKVSNKGLPAPIEKTISKTKGQPREPQVYTLPPSREEMTKNQVSLTCLVKGFYPSDIAVEWESNGQPENNYKTTPPMLDSDGSFFLYSKLTVDKSRWQQGNVFSCSVMHEALHNHYTQKSLSLSPGKGGGGSGGGGSEVQLLESGGGLVQPGGSLRLSCAASGFTFSNYDMSWVRQAPGKGLEWVSLISHGGGNIYYADSVKGRFTISRDNSKNTLYLQMNSLRAEDTAVYYCARVPVMCTNHWCSYANGMDVWGQGTLVTVSSGGGGSGGGGSGGGGSQSVLTQPPSASGTPGQRVIISCSASSSNIGSNAVYWYQQLPGTAPKLLIYSDNQRPSGVPDRFSGSKSGTSASLAISGLRSEDEADYYCGSWDYSLSAYVFGGGTKLTVLG
light: B1 light

Kd [1]: 0.04 nM
Kd (VEGF (R&D systems)): 8.27 nM
B4: MV-21 anti-c-Met/anti-VEGF bispecific antibody (bispecific antibody, human IgG2, kappa)
heavy: EVQLVESGGGLVQPGGSLRLSCAASGFTFTDYYMSWVRQAPGKGLEWLGFIRNKANGYTTEYSASVKGRFTISRDNSKNTLYLQMNSLRAEDTAVYYCARDNWFAYWGQGTLVTVSSASTKGPSVFPLAPCSRSTSESTAALGCLVKDYFPEPVTVSWNSGALTSGVHTFPAVLQSSGLYSLSSVVTVPSSNFGTQTYTCNVDHKPSNTKVDKTVERKCCVECPPCPAPPVAGPSVFLFPPKPKDTLMISRTPEVTCVVVDVSHEDPEVQFNWYVDGVEVHNAKTKPREEQFNSTFRVVSVLTVVHQDWLNGKEYKCKVSNKGLPAPIEKTISKTKGQPREPQVYTLPPSREEMTKNQVSLTCLVKGFYPSDIAVEWESNGQPENNYKTTPPMLDSDGSFFLYSKLTVDKSRWQQGNVFSCSVMHEALHNHYTQKSLSLSPGKGGGGSGGGGSEVQLLESGGGLVQPGGSLRLSCAASGFTFSGYAMSWVRQAPGKGLEWVSGISHDGGNTYYADSVKGRFTISRDNSKNTLYLQMNSLRAEDTAVYYCARDRRKGPSTEFDYWGQGTLVTVSSGGGGSGGGGSGGGGSQSVLTQPPSLSGTPGQRVTISCTGSSSNIGSNSVSWYQQLPGTAPKLLIYDDNNRPSGVPDRFSGSKSGTSASLAISGLRSEDEADYYCGAWDYSLSAYVFGGGTKLTVLG
light: B1 light
